Test results reported in the supplement of paper PMC9170038.

Tested on: MS2 coat protein
Assay: apparent KD of MS2 coat protein; higher = weaker reporter binding
Settings: Eterna round: R107
Method in brief: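 On-chip transcription from Illumina sequencing clusters produced the designed RNA switches. These were titrated with SNAP-549-labelled MS2 coat protein (twofold steps, 0.7 or 1.5 nM to 3 µM) in 100 mM Tris-HCl pH 7.5, 80 mM KCl, 4 mM MgCl2, with or without constant ligand. The apparent KD given is the per-design median of normalised cluster binding-curve fits.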

[1] = input ligand: theophylline 20 uM
[2] = input ligand: tryptophan 2.4 mM
[3] = input ligand: theophylline 2 mM

Sequence	apparent KD of MS2 coat protein (input ligand: arginine 13.2 mM)	apparent KD of MS2 coat protein [1]	apparent KD of MS2 coat protein [2]	apparent KD of MS2 coat protein (input ligand: none)	apparent KD of MS2 coat protein [3]
UCCUUAGAUACUGAUACCAGACUACAGUAAACAUGAGGAUCACCCAUGUUUGAUCACUAAGUCCCUUGGCAGCAGGUACAUGGGA [Theo B SS r1]	0.0126 µM	0.0129 µM	0.0119 µM		
GUCGUGGUCGGAAGGAGCGACAUGAGGAUCACCCAUGUCUCCCGUUAUGGGAGUUCCUUAGGUCAGGUAGGUCGCCGACUGCGGC [#1 Exclusion - Arginine B Attempt #23 (Inspired by Omei)]	0.0547 µM	0.17 µM	0.181 µM	0.199 µM	0.276 µM
AAAUAAAUACAUGAGGAUCACCCAUGUGAAGGAGCGGCCGUUAGGCCAGGUAGGUCGCGCAUGAAUAACUCCGUGCAAAAGCACA [MAT - Exclusion Arginine A - Mod of Eli - D18]	0.00962 µM	0.0169 µM	0.0127 µM	0.0112 µM	0.0133 µM
GCGUGGUCUGCGGCCGCCACUCAAGGAGCUACAUAGCUCCUAGACAUGAGGAUCACCCAUGUCGCGAGGACCGGGUAGAUUCUCC [Same State Typptophan B GF10]	0.0402 µM	0.134 µM			0.12 µM
GGGAGAUGAAAAGAUUGAGCUAAAACAGAAGGAGCGUGAAUUAACACAGGUAGGUCGCUGACAACAUGAGGAUCACCCAUGUAUU [Same State Arginine A GF4]	0.0249 µM	0.0304 µM	0.0214 µM	0.0196 µM	0.0265 µM
AAGGGAGAGUCAGAUACCAGAGUAAGAUGGCAUGGUAAUUACAUGAGGAUCACCCAUGUAUUCCCUUGGCAGCUGACCCUACGUU [Exclusion Theophylline B GF 19]	0.0176 µM	0.0167 µM	0.0128 µM	0.0141 µM	0.0166 µM
AUGGACGACGAUCUGGGAAAACCAGAUCGACGAGGACCGGUACGGCCGCCACUCGUGUUUAUUUAACAUGAGGAUCACCCAUGUA [#13 Tryptophan A Same State]	0.034 µM	0.0557 µM			0.0655 µM
UAUCCACAUGAGGAUCACCCAUGUAGGGAAGGAGCGGUGAUUUCACCAGGUAGGUCGCCUUACUGAGGAGAACCGGUGGAAUCGU [Exclusion - Arginine A (Freestyle 30)]	0.0455 µM	0.0406 µM	0.0198 µM	0.0259 µM	0.0759 µM
GGCCAUGGAAACAUGGCGGCGGCGUAUGCGCGAGGACCGGUACGGCCGCCACUCGGGCGACAUGAGGAUCACCCAUGUUCCUCAU [ETA NP+V+V2 #25]	0.127 µM	0.243 µM			0.275 µM
UCCUCCUCCGCAAGGAGGAGGAGUUGCGAUACCAGCACGGUAACGUGCCCUUGGCAGCGCACAUGAGGAUCACCCAUGUCAUGUU [#1 Exclusion - Theophylline A Attempt #11 (HarryS)]	0.015 µM	0.0245 µM	0.0171 µM		
UUUGACGGCGAUCUGGGUUUACCAGAUCGGCGAGGACCGGUACGGCCGCCACUCGUGUUUCUUUGACAUGAGGAUCACCCAUGUA [whbob_SS_trypto A_f2]	0.0384 µM	0.0573 µM			0.0605 µM
ACAUGAGGAUCACCCAUGUACAUGAGGGAAGGAGCGGUACAUGAGCCAGGUAGGUCGCCCAACAGCAAAUGGCAUGUACAACGGA [hhnmullin]	0.0338 µM	0.0743 µM	0.0635 µM	0.0784 µM	0.0605 µM
GGUUACUCUACGGCCGCCACUGUAAUGUAAAGAUACCUGUACAUGACAUGAGGAUCACCCAUGUACAGGACCGGGUAGUGUAACC [Tryptophan B 17]	0.144 µM	0.312 µM			0.343 µM
CGAUAUAAGACGGCCGCCACUAUUAAGUAACAAAAUAAACAUGAGGAUCACCCAUGUACAUGGGAUAGGACCGGGUCCAAUAACG [A1]	0.0483 µM	0.163 µM			0.166 µM
CAAAAUAUAACGGCCGCCACUUACUCAUGAGGUAACAACAUGAGGAUCACCCAUGUUUGAGGAUCAAGGACCGGGUUAUAUUUUG [AstrosSSTry#21]	0.0247 µM	0.0349 µM			0.033 µM
ACGUAAUGCAGAAGGAGCGUCUGAUUUUAACAUGAGGAUCACCCAUGUAAUAUUUAUGGUAGACAGGUAGGUCGCUGAAGUACGA [JR_ExcArginiB_Sub002]	0.0148 µM	0.0168 µM	0.0148 µM		0.0152 µM
AUAAAAGGGUUAUAUAGAUUUAGGUCCAGUCGAGGACCGGUACGGCCGCCACUCGUACUGAAAUACAUGAGGAUCACCCAUGUUA [JR_SSTryptoA_Sub006]	0.0164 µM	0.0258 µM			0.0229 µM
UGCGACAAGUGAAUACUUUGUUCUAGAGAUACCAGUUCCCGAGUGAACCCUUGGCAGCUCCCAACAUGAGGAUCACCCAUGUAUU [theeternabot_exclusion_MS2_Theo_A_24]	0.0159 µM	0.02 µM	0.0135 µM		

Sequence	apparent KD of MS2 coat protein (input ligand: arginine 13.2 mM)	apparent KD of MS2 coat protein [1]	apparent KD of MS2 coat protein [2]	apparent KD of MS2 coat protein (input ligand: none)	apparent KD of MS2 coat protein [3]
AUCGUACCUCAUGAUACCAGCAUGUGAUCAUAACAUGAGGAUCACCCAUGUAAUCAGUGAUGCCCUUGGCAGCGUAGUCGAUACA [Same State - Theophylline B (Freestyle 8)]	0.0763 µM	0.161 µM	0.123 µM		
ACAUUUAACUGAAGGAGCGUGAUAAACAUGAGGAUCACCCAUGUACCAAAGAUUUUCAGUUCACAGGUAGGUCGCAGACUAAUGA [JR_ExcArginiB_Sub016]	0.0106 µM	0.0138 µM	0.0108 µM	0.0111 µM	0.0115 µM
AACAUGAGGAUCACCCAUGUCCCAUGUGAACGAGGACCGGUACGGCCGCCACUCGACUGAGGCGGCACAUGAGGAUCACCCACAU [whbob_SS_trypto A_2s12]	0.151 µM	0.207 µM			0.269 µM
AUAACAUGAGGAUCACCCAUGUAAGCUGAAGGAGCGGACGAAAGUCCAGGUAGGUCGCAGCACUCCUUCAACAUGGGAGAGGGAG [(M1)-(M2)-(Arg1)-(Arg2)-(A)'-(M)'-(A)''_Design1]	0.0399 µM	0.0598 µM	0.0532 µM	0.0642 µM	0.0725 µM
UGGGUUGGACCAGGAAAUGGUCUGACUCACCGAGGACCGGUACGGCCGCCACUCGUAGGUACAUGAGGAUCACCCAUGUCGGUGG [#1 Same State - Tryptophan A Attempt #11 (HarryS)]	0.0917 µM	0.0342 µM	0.0688 µM	0.0236 µM	0.0362 µM
AAAUGUGUAAAAGCUUUAACACCCUGAGAAGGAGCGCAAUAAAUUGCAGGUAGGUCGCUCAGACAUGAGGAUCACCCAUGUAACC [Atrabeor]	0.0457 µM	0.0569 µM	0.04 µM	0.0396 µM	0.0597 µM
GCACAAGAUGGAAGGAGCGCUGGAAAAGGUCACAUGAGGAUCACCCAUGUUCUCCGAACCGAGCAGGUAGGUCGCUAUCUUGUGC [#09 Same State - Arginine B]	0.0375 µM	0.0599 µM	0.0417 µM	0.0419 µM	0.0507 µM
GAUGAACUAUUCGAUACCAGACCACAUGAGGAUCACCCAUGUGUGUUUCGUCCUUAGCCGGUCCCUUGGCAGCGAAUAGUUUAUC [#28 Exclusion-TheophyllineB]	0.0258 µM	0.0303 µM	0.0194 µM		
ACUAGUUGUGCAGAUACCAGAUAUGAGGAUCACCCAUAUUUGGGAUGUUCGCAUCUUCCUGUCCCUUGGCAGCUGUACAUCUAGA [Omei Theo B Exc v7]	0.0379 µM	0.0867 µM	0.0339 µM	0.0373 µM	0.107 µM
GAAGCUCGCGAUGAUACCAGCUCGACUGAUAACAUGAGGAUCACCCAUGUUGUGCGCCCUAGCCCUUGGCAGCAUGACAUAUUCG [theeternabot_sameState_MS2_Theo_B_46]	0.0475 µM	0.126 µM	0.0978 µM		
CAGAGCUACCGGGAUACCAGAAAUGGUAUUCCUUAAUUUCUUACAUGAGGAUCACCCAUGUUCCCUUGGCAGCUUGGUAGCUCUG [ETHB #8]	0.0486 µM	0.107 µM	0.0837 µM		
UUAACAUGAGGAUCACCCAUGUUUGAUGAAGGAGCGACCAGAGGGUCAGGUAGGUCGCAUCACAUGAGGAUCACCCAUGUCGCCC [DOUBLE!!! :-D #13]	0.0223 µM	0.026 µM	0.0224 µM	0.0218 µM	0.0258 µM
GGUUGAUGACAUGAGGAUCACCCAUGUAGGCGAGGACCGGUACGGCCGCCACUCGACAUGAGGAUCACCCAUGUCGGCGUCCGUG	0.0143 µM	0.0199 µM			0.018 µM
UAAAUAUUACUGGGUAAGGUAUAAAUAGAUACCAGCCAGAUAACUGGCCCUUGGCAGCUAAACAUGAGGAUCACCCAUGUAUAAU [TheoAS 20 #OpenEnded #Ms2Late]	0.0235 µM	0.044 µM	0.0332 µM		
CGCCUACAGGUGUACUAUUGUGGUGAAGAUACCAGAUAGCCCAAUAUCCCUUGGCAGCUUCAGACAUGAGGAUCACCCAUGUAUC [theeternabot_exclusion_MS2_Theo_A_30]	0.0178 µM	0.0187 µM	0.0155 µM		
AAAAUCCUACCUGAGGAUCACCCUGGUGAAGGAGCGCCCGAAAGGGCAGGUAGGUCGCACCUGAGGAUCACCCGGGUAACCUAAA [ArgEX 14 #DoubleMS2 #OpenEnded #AlternativeMS2]	0.0787 µM	0.139 µM	0.151 µM	0.17 µM	0.2 µM
AAACGUUGCUCAGAUACCAGACAUGAGGAUCACCCAUGUACCAAGGUAACCGAAAGGCAUGUCCCUUGGCAGCUGAGCAACGAAA [MAT - Exclusion Theophlline B - Mod of Eli - D16]	0.0124 µM	0.0214 µM	0.0125 µM		
GAUGAACUAUAUGAUACCAGACAACAUGAGGAUCACCCAUGUGAUUGUCGUCCUCUGCCUGUCCCUUGGCAGCGUAUAGUUUAUC [XTheo B #16]	0.0384 µM	0.0874 µM	0.0234 µM		
